Assay [1] concerns the target Recombinant human Toll-like receptor 2 (rTLR2) (UniProt O60603). Kind of assay: ELISA; competition: synthesized peptides (1 μM, and dose-dependent for IC50) against the binding of rLipL32WT to rTLR2.
Assay [2] shares this target. Nature of the assay: AFM force spectroscopy; rTLR2 covalently fixed on mica, LipL32 or variant coupled to the AFM tip (glutaraldehyde); force-distance curves, maximum distribution force and binding frequency; anti-TLR2 antibody as neutralising control.
Assay [3] shares this target. Nature of the assay: ELISA; dose-dependent; rTLR2 coated, LipL32 variants 0 to 2 μM in PBS, 90 min at 37 °C, anti-His6 detection; in the presence of 1 µM EGTA; Kd from a one-site fit. Background: ELISA stands for enzyme-linked immunosorbent assay.
Assay [4] has the same target. Kind of assay: ELISA; dose-dependent; rTLR2 coated, LipL32 variants 0 to 2 μM in PBS, 90 min at 37 °C, anti-His6 detection; in the presence of 1 µM Ca2+; Kd from a one-site fit.
Assay [5] has the same target. Nature of the assay: ELISA. To be noted: parent: est. 0.37; read off a plot.

Sequence of Recombinant human Toll-like receptor 2 (rTLR2) (O60603 21-784): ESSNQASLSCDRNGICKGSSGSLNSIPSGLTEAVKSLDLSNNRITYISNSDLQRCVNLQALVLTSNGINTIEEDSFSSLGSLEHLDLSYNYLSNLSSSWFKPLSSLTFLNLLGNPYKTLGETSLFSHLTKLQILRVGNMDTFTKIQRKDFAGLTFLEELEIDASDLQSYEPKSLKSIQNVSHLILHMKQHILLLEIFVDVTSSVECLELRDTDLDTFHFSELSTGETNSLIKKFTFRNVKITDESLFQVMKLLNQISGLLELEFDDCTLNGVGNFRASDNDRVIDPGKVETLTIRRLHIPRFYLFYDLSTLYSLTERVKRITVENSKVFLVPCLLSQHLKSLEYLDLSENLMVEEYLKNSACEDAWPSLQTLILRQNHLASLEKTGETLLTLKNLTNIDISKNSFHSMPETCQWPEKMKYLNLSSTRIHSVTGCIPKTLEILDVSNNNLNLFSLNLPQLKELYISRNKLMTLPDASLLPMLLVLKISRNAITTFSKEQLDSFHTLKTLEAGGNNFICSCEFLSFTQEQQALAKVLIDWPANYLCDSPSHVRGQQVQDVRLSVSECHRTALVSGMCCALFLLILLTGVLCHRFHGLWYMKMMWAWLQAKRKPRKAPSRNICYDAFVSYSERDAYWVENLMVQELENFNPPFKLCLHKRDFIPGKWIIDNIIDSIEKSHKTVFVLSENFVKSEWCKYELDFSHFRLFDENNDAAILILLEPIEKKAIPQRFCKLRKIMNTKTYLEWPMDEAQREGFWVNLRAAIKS

With “C25 peptide (248–272 residues of LipL32)”, the IC50 in assay [1] was determined as 140 nM.

With N20 peptide (1–20 residues of LipL32), in assay [1], the concentration for half-maximal inhibition (IC50) is 90 nM.

N50 peptide (1–50 residues of LipL32): the IC50 in assay [1] was found to be 70 nM.

With “Recombinant LipL32 wild type, mature form (rLipL32; 21-272) (natural protein)”, the maximum distribution force (AFM) in assay [2] was 55.3 pN. In addition, the Kd in assay [3] was 450 nM; in assay [4] it was 130 nM.

For the substance “Recombinant LipL32 wild type, mature form (rLipL32; 21-272) L263S”, in assay [5], the response stood at 0.29 OD450nm.

Regarding rLipL32 D195A variant (natural protein), the figures for the Kd in assay [3] and in assay [4] were 120 nM and 100 nM, respectively.

As to rLipL32 D196A variant (natural protein), the Kd in assay [3] and in assay [4] was 160 nM in each case.

In general, IC50 refers to the concentration at which inhibition is half-maximal. For orientation: Kd means the equilibrium constant for the complex coming apart.

The record behind these values is PMC5566480.
